The assay has as its system target antigen-expressing cell line. The assay is described as follows: Jurkat NFAT-GFP assay, coculture with target cell lines expressing the respective target antigen (summary Table 10A). The settings on record: relative % GFP positive cells; for NFAT-GFP ASSAY Positive Cell lines: HepG2: SIR-expressing Jurkat-NFAT-GFP cells cocultured with HepG2. In kind it is cell-based, human. Set-up: key: The signs +/−, +, 2+ etc. after the name of the cell lines indicate the relative degree of positivity on the Jurkat-NFAT-GFP assay as measured by the % GFP positive cells; +: relative degree of positivity on the Jurkat-NFAT-GFP assay as measured by the % GFP positive cells; 2+: relative degree of positivity on the Jurkat-NFAT-GFP assay as measured by the % GFP positive cells. On the procedure: (B) Induction of NFAT promoter driven GFP expression. The control vector- and SIR-expressing Jurkat-NFAT-GFP cocultured for 4-24 hours with the target antigen-expressing cell line (described above) and their ability to bind to the target antigen is assayed by measuring induction of GFP expression using Flow Cytometry. Cellular supernatant is collected and assayed for the induction of cytokines (e.g., IL2).
Jurkat NFAT-GFP Assay For Synthetic Immune Receptors. The Jurkat-NFAT-GFP cells are engineered in such a way that the IL-2 promoter, which carries NFAT binding sites, is cloned upstream of the GFP gene. These cells have been used to study signaling via TCR and CAR. The different SIRs were stably expressed in Jurkat NFAT-GFP cells by lentiviral mediated gene transfer, followed by selection with puromycin. The SIR-expressing Jurkat-NFAT-GFP cells were cocultured with the target cells at E:T ratio of approximately 1:2 for approximately 4 hours to 18 hours. When the interaction between SIRs and their target antigen results in activation of the NFAT pathway, GFP expression is induced.
Induction of GFP expression by coculturing of Jurkat-NFAT-GFP cells expressing different SIR constructs and the different target cells was studied essentially as described previously (Wu, Roybal, Puchner, Onuffer, & Lim, 2015). GFP expression was monitored by FACS analysis. A few representative examples of this assay are shown in the FIG. 13A-B. In panel A, control Jurkat-NFAT-GFP cells or those expressing SIRs targeting CD19 (clone ID 051716-I08), MPL (Clone ID: 040716-A07) and BCMA (Clone ID: 011116-A07) were incubated with RAJI (top), HEL (middle) or U266 (bottom) cells, respectively. […] In panel B, Jurkat cells expressing SIR targeting CDH6 (Clone ID: 051716-J05), CD276 (Clone ID: 050516-Q06) and Her2/neu (Clone ID: 050516-I03) were incubated with SKOV3 (top) and […] (middle and bottom) cells, respectively. […] The Jurkat-NFAT-GFP cells were engineered to express different SIRs targeting other antigens and the experiment repeated upon coculture with the target cells expressing their respective target antigen. The Jurkat-NFAT-GFP (parental) cells were used as control. The names of different SIRs, their SEQ ID NOs, component antigen binding domains and TCR chains can be determined by reference to Tables 7A-7H. A SIR is considered positive in the assay in case the SIR expressing Jurkat-NFAT-GFP cells show greater % GFP positive cells when cultured with the target cell line as compared to parental Jurkat-NFAT-GFP cells. […] The signs +/−, +, 2+ etc. after the name of the cell lines indicate the relative degree of positivity on the Jurkat-NFAT-GFP assay as measured by the % GFP positive cells after culture of the SIR expressing Jurkat-NFAT-GFP cells with that cell line. […] In addition, great diversity of response against the same target cell line is observed with Jurkat cells expressing SIRs containing different antigen binding domains targeting the same antigen (e.g., SIRs having antigen binding domains derived form different CD19 antibodies) even when the SIRs share the same TCR chains and linkers. Finally, Jurkat cells expressing SIRs targeting different antigens (e.g. CD19 vs CD20) show a diversitiy of response when exposed to the same target cell line. Thus, a diverse immune response can be generated against a single target cell by combining SIRs with different TCR chains, linkers, antigen binding domains and target specificity. Table 10A also summarizes the results of GLuc based T cell cytotoxicity assay observed with different SIRs when exposed to their target cell lines. […]

B1: 012617-M05 (protein)
chain: MALPVTALLLPLALLLHAARPLEGKPIPNPLLGLDSTGSGEDLKNVFPPEVAVFEPSKAEIAHTQKATLVCLATGFYPDHVELSWWVNGKEVHSGVCTDPQPLKEQPALNDSRYCLSSRLRVSATFWQNPRNHFRCQVQFYGLSENDEWTQDRAKPVTQIVSAEAWGRADCGITSASYHQGVLSATILYEILLGKATLYAVLVSALVLMAMVKRKDSRGRAKRSGSGATNFSLLKQAGDVEENPGPTSMALPVTALLLPLALLLHAARPQSVLTQPASVSGSPGQSITISCTGTSSDVGGYNYVSWYQQHPGKAPKLMIYDVNNRPSEVSNRFSGSKSGNTASLTISGLQAEDEADYYCSSYTTGSRAVFGGGTKLTVLGGGGGSGGGGSGGGGSEVQLVQSGAEVKKPGESLTISCKASGYSFPNYWITWVRQMSGGGLEWMGRIDPGDSYTTYNPSFQGHVTISIDKSTNTAYLHWNSLKASDTAMYYCARYYVSLVDIWGQGTLVTVSSTREQKLISEEDGSGIQNPDPAVYQLRDSKSSDKSVCLFTDFDSQTNVSQSKDSDVYITDKCVLDMRSMDFKSNSAVAWSNKSDFACANAFNNSIIPEDTFFPSSDVPCDVKLVEKSFETDTNLNFQNLSVIGFRILLLKVAGFNLLMTLRLWSSRAKRSGSGVKQTLNFDLLKLAGDVESNPGPSRGHMTEYKPTVRLATRDDVPRAVRTLAAAFADYPATRHTVDPDRHIERVTELQELFLTRVGLDIGKVWVADDGAAVAVWTTPESVEAGAVFAEIGPRMAELSGSRLAAQQQMEGLLAPHRPKEPAWFLATVGVSPDHQGKGLGSAVVLPGVEAAERAGVPAFLETSAPRNLPFYERLGFTVTADVEVPEGPRTWCMTRKPGA
For the molecule B1, the “NFAT-GFP ASSAY Positive Cell lines: HepG2” value is reported as “HepG2 (2+)”.

B2: 051816-Z01 (protein)
chain: MALPVTALLLPLALLLHAARPDVQMIQTPSSLSASLGDRVTISCRASQDIGNYLNWYQQKPDGTVKLLIYYTSRLHSGVPSRFSGSGSGTEYSLTISNLEQEDIATYFCQQGSALPPTFGGGTKLEINLEGKPIPNPLLGLDSTGSGEDLKNVFPPEVAVFEPSKAEIAHTQKATLVCLATGFYPDHVELSWWVNGKEVHSGVCTDPQPLKEQPALNDSRYCLSSRLRVSATFWQNPRNHFRCQVQFYGLSENDEWTQDRAKPVTQIVSAEAWGRADCGITSASYHQGVLSATILYEILLGKATLYAVLVSALVLMAMVKRKDSRGRAKRSGSGATNFSLLKQAGDVEENPGPTSMDWIWRILFLVGAATGAHSFEALQLQQSGAELVRPGASVTLSCKASGYTFTDYEMHWVKQTPVHGLEWIGAIDPETGGTAYNQKFEGKAILTADKSSSTAYMELRSLTSEDSPVYYCARRRYYGSSSFDYWGQGTTLTVSSTREQKLISEEDGSGIQNPDPAVYQLRDSKSSDKSVCLFTDFDSQTNVSQSKDSDVYITDKCVLDMRSMDFKSNSAVAWSNKSDFACANAFNNSIIPEDTFFPSSDVPCDVKLVEKSFETDTNLNFQNLSVIGFRILLLKVAGFNLLMTLRLWSSRAKRSGSGVKQTLNFDLLKLAGDVESNPGPSRGHMTEYKPTVRLATRDDVPRAVRTLAAAFADYPATRHTVDPDRHIERVTELQELFLTRVGLDIGKVWVADDGAAVAVWTTPESVEAGAVFAEIGPRMAELSGSRLAAQQQMEGLLAPHRPKEPAWFLATVGVSPDHQGKGLGSAVVLPGVEAAERAGVPAFLETSAPRNLPFYERLGFTVTADVEVPEGPRTWCMTRKPGA
modifications: Synthetic Immune Receptor (SIR)
On to B2, for which the “NFAT-GFP ASSAY Positive Cell lines: LAN5” value (SIR-expressing Jurkat-NFAT-GFP cells cocultured with LAN5) is given as “LAN5 (2+)”.

B3: 021317-E02 (protein)
chain: MALPVTALLLPLALLLHAARPLEGKPIPNPLLGLDSTGSGEDLKNVFPPEVAVFEPSKAEIAHTQKATLVCLATGFYPDHVELSWWVNGKEVHSGVCTDPQPLKEQPALNDSRYCLSSRLRVSATFWQNPRNHFRCQVQFYGLSENDEWTQDRAKPVTQIVSAEAWGRADCGITSASYHQGVLSATILYEILLGKATLYAVLVSALVLMAMVKRKDSRGRAKRSGSGATNFSLLKQAGDVEENPGPTSMALPVTALLLPLALLLHAARPQSVLTQPPSVSGAPGQRVTISCTGSSSNIGAGYDVHWYQQLPGTAPKLLIFGNSNRPSGVPDRFSGFKSGTSASLAITGLQAEDEADYFCQSYDSSLSGSGVFGTGTKVTVLGGGGGSGGGGSGGGGSQMQLVQSGGGLVQPGRSLRLSCAASGFTFDDYAMHWVRQAPGKGLEWVSGISWNSGSIGYADSVKGRFTISRDNAKNSLYLQMNSLRAEDTALYYCAKDIHSGSYYGLLYYAMDVWGQGTTVTVSSTREQKLISEEDGSGIQNPDPAVYQLRDSKSSDKSVCLFTDFDSQTNVSQSKDSDVYITDKCVLDMRSMDFKSNSAVAWSNKSDFACANAFNNSIIPEDTFFPSSDVPCDVKLVEKSFETDTNLNFQNLSVIGFRILLLKVAGFNLLMTLRLWSSRAKRSGSGVKQTLNFDLLKLAGDVESNPGPSRGHMTEYKPTVRLATRDDVPRAVRTLAAAFADYPATRHTVDPDRHIERVTELQELFLTRVGLDIGKVWVADDGAAVAVWTTPESVEAGAVFAEIGPRMAELSGSRLAAQQQMEGLLAPHRPKEPAWFLATVGVSPDHQGKGLGSAVVLPGVEAAERAGVPAFLETSAPRNLPFYERLGFTVTADVEVPEGPRTWCMTRKPGA
Regarding B3, the “NFAT-GFP ASSAY Positive Cell lines: HepG2” value was “HepG2 (+)”.

B4: 012417-H04 (protein)
chain: MALPVTALLLPLALLLHAARPLEGKPIPNPLLGLDSTGSGEDLKNVFPPEVAVFEPSKAEIAHTQKATLVCLATGFYPDHVELSWWVNGKEVHSGVCTDPQPLKEQPALNDSRYCLSSRLRVSATFWQNPRNHFRCQVQFYGLSENDEWTQDRAKPVTQIVSAEAWGRADCGITSASYHQGVLSATILYEILLGKATLYAVLVSALVLMAMVKRKDSRGRAKRSGSGATNFSLLKQAGDVEENPGPTSMALPVTALLLPLALLLHAARPDIVMTQSPATLSLSPGERATLSCRSSKSLQNVNGNTYLYWFQQKPGQSPQLLIYRMSNLNSGVPDRFSGSGSGTEFTLTISSLEPEDFAVYYCMQHLEYPITFGAGTKLEIKGGGGSGGGGSGGGGSEVQLVESGGGLVKPGGSLKLSCAASGYTFTSYVMHWVRQAPGKGLEWIGYINPYNDGTKYNEKFQGRVTISSDKSISTAYMELSSLRSEDTAMYYCARGTYYYGTRVFDYWGQGTLVTVSSTREQKLISEEDGSGIQNPDPAVYQLRDSKSSDKSVCLFTDFDSQTNVSQSKDSDVYITDKCVLDMRSMDFKSNSAVAWSNKSDFACANAFNNSIIPEDTFFPSSDVPCDVKLVEKSFETDTNLNFQNLSVIGFRILLLKVAGFNLLMTLRLWSSRAKRSGSGVKQTLNFDLLKLAGDVESNPGPSRGHMTEYKPTVRLATRDDVPRAVRTLAAAFADYPATRHTVDPDRHIERVTELQELFLTRVGLDIGKVWVADDGAAVAVWTTPESVEAGAVFAEIGPRMAELSGSRLAAQQQMEGLLAPHRPKEPAWFLATVGVSPDHQGKGLGSAVVLPGVEAAERAGVPAFLETSAPRNLPFYERLGFTVTADVEVPEGPRTWCMTRKPGA
For the molecule B4, the “NFAT-GFP ASSAY Positive Cell lines: NALM6” value (SIR-expressing Jurkat-NFAT-GFP cells cocultured with NALM6) is “(+)”. For the same molecule, the “NFAT-GFP ASSAY Positive Cell lines: RAJI” value (SIR-expressing Jurkat-NFAT-GFP cells cocultured with RAJI) is “RAJI (2+), NALM6”.

These data come from patent US12269859B2, “Synthetic immune receptors and methods of use thereof” (Angeles Therapeutics, Inc., priority 2016, dated 2025).
